In patent US20160200782A1 (MOERAE MATRIX, published 2016):

T1: PKCζ(h) (human, UniProt Q05513 1-592)
T1 sequence (looked up): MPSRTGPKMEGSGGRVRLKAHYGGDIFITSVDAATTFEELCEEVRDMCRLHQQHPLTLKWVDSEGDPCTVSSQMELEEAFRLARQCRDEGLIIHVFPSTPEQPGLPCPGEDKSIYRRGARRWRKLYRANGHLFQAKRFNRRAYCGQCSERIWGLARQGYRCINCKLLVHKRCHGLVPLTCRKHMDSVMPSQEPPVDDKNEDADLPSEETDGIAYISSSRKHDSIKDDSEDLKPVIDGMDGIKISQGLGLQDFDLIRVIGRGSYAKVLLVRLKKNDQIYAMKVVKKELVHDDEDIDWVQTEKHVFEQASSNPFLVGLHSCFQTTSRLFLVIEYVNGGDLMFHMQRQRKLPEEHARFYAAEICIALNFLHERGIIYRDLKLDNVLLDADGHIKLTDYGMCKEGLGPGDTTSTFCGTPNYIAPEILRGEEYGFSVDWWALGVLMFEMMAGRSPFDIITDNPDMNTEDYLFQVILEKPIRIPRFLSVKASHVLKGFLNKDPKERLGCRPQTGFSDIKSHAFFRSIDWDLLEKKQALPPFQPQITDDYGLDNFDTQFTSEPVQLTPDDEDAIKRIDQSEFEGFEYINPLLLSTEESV

T2: Ron(h) (human, UniProt Q04912 983-1400, limits assumed)
T2 sequence (looked up): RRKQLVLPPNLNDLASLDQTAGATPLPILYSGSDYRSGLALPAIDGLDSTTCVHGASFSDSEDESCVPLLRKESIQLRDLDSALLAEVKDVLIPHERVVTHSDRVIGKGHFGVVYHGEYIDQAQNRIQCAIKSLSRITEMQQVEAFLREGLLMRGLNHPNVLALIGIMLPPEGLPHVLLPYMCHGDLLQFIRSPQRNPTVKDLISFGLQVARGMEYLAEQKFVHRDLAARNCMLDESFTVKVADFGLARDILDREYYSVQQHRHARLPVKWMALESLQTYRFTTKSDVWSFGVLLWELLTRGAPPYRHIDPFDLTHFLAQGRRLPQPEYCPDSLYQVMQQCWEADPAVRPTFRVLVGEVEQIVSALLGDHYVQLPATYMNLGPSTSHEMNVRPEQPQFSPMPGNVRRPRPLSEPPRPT

T3: Flt1(h) (human, UniProt P17948 781-1338, limits assumed)
T3 sequence (looked up): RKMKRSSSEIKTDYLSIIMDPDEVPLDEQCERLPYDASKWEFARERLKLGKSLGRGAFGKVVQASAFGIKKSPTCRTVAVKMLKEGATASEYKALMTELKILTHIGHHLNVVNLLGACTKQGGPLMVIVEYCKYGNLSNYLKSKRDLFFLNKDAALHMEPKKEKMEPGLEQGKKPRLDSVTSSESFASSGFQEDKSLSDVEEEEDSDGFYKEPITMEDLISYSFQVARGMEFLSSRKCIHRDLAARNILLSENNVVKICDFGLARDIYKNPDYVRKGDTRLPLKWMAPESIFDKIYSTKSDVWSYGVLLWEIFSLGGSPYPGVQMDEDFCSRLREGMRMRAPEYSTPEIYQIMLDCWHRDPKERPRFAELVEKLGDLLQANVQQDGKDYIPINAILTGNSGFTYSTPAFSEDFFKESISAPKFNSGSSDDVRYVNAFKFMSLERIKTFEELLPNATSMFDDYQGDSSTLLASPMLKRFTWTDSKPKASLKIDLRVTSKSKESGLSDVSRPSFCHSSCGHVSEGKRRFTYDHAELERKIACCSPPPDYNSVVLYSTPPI

T4: Rse(h) (human, UniProt Q06418 451-890, limits assumed)
T4 sequence (looked up): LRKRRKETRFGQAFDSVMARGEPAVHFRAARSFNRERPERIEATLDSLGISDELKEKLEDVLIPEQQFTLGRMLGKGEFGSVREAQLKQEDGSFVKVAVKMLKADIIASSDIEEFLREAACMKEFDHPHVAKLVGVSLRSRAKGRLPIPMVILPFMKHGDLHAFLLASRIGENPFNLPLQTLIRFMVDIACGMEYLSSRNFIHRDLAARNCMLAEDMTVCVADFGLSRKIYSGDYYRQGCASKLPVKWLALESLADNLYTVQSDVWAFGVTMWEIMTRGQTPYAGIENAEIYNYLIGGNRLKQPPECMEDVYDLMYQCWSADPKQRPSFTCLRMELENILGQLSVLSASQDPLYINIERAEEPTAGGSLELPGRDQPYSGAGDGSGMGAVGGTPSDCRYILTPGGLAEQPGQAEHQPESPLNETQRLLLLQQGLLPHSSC


How the values were obtained:
Experiment in all cases: cell-based or functional assay
Src(1-530)(h) = Src(1-530)(h) (human, UniProt P12931 1-530)
PKBγ(h) = PKBγ(h) (human, UniProt Q9Y243 1-479, limits assumed)
PKBγ(h), sequence (Q9Y243 whole entry): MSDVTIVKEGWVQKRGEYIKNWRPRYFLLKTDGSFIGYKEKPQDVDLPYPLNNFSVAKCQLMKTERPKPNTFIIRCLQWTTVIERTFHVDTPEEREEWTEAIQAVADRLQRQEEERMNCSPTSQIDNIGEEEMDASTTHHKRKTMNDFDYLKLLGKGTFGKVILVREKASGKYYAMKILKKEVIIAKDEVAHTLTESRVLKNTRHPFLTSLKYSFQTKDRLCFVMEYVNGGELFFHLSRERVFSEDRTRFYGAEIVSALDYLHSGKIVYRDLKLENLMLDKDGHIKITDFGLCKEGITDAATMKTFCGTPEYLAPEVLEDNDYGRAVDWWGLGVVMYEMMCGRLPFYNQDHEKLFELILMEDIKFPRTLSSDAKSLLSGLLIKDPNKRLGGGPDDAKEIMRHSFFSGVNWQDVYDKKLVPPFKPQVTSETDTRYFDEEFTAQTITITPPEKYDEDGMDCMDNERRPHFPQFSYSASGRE

PAK4(h) = PAK4(h) (human, UniProt O96013 1-591, limits assumed)
PAK4(h), sequence (O96013 whole entry): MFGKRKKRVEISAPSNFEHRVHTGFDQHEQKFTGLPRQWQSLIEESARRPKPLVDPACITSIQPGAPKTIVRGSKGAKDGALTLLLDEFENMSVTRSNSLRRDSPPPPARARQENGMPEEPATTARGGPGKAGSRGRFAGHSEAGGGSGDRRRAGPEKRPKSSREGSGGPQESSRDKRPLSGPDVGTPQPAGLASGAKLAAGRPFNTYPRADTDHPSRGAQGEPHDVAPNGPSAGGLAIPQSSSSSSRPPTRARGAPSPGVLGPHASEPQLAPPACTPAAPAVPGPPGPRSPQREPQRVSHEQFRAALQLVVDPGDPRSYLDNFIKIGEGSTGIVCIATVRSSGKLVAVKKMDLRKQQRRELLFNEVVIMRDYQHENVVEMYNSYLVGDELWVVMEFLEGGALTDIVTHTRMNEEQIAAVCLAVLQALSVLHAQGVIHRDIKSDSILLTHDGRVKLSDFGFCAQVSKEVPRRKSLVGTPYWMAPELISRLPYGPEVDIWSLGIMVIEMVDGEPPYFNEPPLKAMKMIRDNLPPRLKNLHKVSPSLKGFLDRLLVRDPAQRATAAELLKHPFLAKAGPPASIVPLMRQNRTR

PKCζ(h) = target: T1, PKCζ(h)
Ron(h) = target: T2, Ron(h)
Flt1(h) = target: T3, Flt1(h)
Rse(h) = target: T4, Rse(h)
BTK(h) = BTK(h) (human, UniProt Q06187 1-659)
BTK(h), sequence (Q06187 whole entry): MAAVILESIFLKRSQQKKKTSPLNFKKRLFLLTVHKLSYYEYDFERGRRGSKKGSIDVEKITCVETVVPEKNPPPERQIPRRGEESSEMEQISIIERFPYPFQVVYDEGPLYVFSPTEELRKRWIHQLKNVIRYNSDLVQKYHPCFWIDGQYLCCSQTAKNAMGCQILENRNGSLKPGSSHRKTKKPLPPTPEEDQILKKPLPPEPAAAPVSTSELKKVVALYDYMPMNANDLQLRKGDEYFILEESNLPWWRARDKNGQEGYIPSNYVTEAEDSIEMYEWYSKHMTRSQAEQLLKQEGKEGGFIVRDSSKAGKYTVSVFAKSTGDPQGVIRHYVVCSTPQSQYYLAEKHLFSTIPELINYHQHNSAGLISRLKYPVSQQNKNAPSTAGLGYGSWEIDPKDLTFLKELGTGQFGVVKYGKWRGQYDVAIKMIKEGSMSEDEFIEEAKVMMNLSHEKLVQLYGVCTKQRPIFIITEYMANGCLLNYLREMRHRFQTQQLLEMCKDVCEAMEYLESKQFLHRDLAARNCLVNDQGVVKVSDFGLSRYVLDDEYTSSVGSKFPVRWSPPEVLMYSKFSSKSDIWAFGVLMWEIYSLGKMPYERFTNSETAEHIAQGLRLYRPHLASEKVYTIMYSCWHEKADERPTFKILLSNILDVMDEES

Rsk1(h) = Rsk1(h) (human, UniProt Q15418 1-735, limits assumed)
Rsk1(h), sequence (Q15418 whole entry): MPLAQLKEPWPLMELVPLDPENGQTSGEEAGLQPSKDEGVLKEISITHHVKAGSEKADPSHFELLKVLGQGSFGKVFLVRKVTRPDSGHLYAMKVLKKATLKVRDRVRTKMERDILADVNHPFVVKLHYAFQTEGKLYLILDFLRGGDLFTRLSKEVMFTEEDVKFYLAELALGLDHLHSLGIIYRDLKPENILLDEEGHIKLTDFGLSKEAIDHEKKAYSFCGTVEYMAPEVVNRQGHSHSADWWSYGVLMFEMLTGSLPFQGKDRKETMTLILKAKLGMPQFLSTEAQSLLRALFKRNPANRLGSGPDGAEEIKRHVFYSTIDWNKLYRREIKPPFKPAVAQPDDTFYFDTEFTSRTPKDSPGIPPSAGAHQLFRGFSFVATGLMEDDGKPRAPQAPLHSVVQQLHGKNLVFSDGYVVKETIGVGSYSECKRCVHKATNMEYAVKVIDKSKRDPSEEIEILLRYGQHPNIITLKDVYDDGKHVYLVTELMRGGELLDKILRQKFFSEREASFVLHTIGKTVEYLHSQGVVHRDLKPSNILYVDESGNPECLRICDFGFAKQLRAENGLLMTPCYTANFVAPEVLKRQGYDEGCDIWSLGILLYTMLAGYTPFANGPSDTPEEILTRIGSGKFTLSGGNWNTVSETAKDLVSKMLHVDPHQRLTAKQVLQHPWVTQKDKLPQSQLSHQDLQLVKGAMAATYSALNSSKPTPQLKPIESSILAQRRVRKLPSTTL

Fes(h) = Fes(h) (human, UniProt P07332 1-822, limits assumed)
Fes(h), sequence (P07332 whole entry): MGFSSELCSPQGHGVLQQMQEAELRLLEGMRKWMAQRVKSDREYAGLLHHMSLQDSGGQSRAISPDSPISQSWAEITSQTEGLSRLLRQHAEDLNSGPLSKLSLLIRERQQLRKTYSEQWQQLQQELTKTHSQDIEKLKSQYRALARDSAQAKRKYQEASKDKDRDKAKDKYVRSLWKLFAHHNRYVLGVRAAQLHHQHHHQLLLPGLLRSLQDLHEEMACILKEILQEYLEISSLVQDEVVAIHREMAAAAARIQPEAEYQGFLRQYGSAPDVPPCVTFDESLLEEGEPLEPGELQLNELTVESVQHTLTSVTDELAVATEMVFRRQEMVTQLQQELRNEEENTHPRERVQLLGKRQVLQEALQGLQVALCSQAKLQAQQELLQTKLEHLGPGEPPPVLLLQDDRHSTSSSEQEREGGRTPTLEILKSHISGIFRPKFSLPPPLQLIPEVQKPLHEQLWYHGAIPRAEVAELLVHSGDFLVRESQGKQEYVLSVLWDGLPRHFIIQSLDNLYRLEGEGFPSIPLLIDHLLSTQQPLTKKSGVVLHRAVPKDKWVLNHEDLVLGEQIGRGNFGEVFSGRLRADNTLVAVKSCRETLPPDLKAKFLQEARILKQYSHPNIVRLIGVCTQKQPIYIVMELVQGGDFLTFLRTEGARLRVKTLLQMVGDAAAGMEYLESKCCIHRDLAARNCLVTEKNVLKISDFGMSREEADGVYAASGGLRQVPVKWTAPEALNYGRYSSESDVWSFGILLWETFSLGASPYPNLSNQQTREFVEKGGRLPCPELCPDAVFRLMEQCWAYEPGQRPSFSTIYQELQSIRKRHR

SAPK2a(h) = SAPK2a(h) (human, UniProt Q16539 1-360)
SAPK2a(h), sequence (Q16539 whole entry): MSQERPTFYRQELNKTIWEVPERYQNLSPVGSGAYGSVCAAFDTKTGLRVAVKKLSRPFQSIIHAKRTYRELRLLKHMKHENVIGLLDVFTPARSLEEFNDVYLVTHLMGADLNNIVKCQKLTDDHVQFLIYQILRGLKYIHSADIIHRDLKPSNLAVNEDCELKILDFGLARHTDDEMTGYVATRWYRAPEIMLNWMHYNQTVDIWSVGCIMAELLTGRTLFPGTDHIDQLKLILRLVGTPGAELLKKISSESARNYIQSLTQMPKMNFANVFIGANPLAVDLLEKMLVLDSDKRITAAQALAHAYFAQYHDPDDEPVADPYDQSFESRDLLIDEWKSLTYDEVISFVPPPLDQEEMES

GSK3β(h) = GSK3β(h) (human, UniProt P49841 1-420)
GSK3β(h), sequence (P49841 whole entry): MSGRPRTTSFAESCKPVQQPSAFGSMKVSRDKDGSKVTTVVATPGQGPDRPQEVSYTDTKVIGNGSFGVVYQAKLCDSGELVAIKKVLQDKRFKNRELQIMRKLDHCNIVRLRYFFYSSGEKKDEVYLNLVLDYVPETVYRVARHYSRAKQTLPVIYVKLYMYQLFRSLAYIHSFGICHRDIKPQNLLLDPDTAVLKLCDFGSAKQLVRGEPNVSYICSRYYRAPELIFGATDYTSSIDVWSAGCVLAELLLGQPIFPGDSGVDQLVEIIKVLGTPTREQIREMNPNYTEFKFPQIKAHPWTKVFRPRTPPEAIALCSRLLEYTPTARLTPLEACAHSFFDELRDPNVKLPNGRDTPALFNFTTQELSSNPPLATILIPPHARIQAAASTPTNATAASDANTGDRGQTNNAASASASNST

ErbB4(h) = ErbB4(h) (human, UniProt Q15303 676-1308, limits assumed)
ErbB4(h), sequence (Q15303 676-1308 limits assumed): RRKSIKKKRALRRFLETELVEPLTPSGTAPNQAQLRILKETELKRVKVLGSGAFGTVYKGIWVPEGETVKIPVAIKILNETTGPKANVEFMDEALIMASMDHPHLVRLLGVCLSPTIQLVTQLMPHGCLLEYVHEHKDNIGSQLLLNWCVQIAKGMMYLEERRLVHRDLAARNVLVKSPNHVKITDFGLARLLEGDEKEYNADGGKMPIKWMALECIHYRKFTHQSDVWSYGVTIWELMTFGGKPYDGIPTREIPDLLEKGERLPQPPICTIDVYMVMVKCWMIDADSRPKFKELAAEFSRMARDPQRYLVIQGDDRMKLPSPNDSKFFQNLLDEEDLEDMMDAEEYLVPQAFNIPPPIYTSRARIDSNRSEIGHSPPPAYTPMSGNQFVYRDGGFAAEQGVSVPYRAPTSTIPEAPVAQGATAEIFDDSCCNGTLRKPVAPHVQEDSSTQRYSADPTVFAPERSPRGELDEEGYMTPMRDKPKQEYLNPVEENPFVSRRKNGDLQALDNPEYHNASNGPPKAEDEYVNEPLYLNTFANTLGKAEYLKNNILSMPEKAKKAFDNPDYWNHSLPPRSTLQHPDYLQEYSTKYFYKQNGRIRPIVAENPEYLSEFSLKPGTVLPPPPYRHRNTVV
Also: test concentration or dose not given here.

| Binder | % activity (Src(1-530)(h)) [%] | % activity (PKBγ(h)) [%] | % activity (PAK4(h)) [%] | % activity (PKCζ(h)) [%] | % activity (Ron(h)) [%] | % activity (Flt1(h)) [%] | % activity (Rse(h)) [%] | % activity (BTK(h)) [%] | % activity (Rsk1(h)) [%] | % activity (Fes(h)) [%] | % activity (SAPK2a(h)) [%] | % activity (GSK3β(h)) [%] | % activity (ErbB4(h)) [%] |
| --- | --- | --- | --- | --- | --- | --- | --- | --- | --- | --- | --- | --- | --- |
| FAKLAARLYRKALARQLGVAA [MMI-0300] | 23 | 20 | 94 | 81 | 93 | 69 | 88 | 102 | 46 | 20 | 90 | 205 | 40 |
| KAFAKLAARLYRKALARQLGVAA [MMI-0400] | 19 | 41 | 89 | 75 | 79 | 48 | 89 | 94 | 54 | 16 | 85 | 202 | 0 |
